How the values were obtained:
[1] = molecular target: CEACAM1 in a cancer specimen having a high value of CEACAM1 (human) (UniProt P13688); test: CLEIA sandwich without denaturation: 283324 on magnetic particles, biotin-labeled BAF2244 as detector; competitor AF2244 30 ug/mL added to a cancer specimen (FIG. 12)
[2] = molecular target: commercially available recombinant antigen CEACAM1 (R&D Systems) (UniProt P13688); test: ELISA on CEACAM1 coated in PBS; antibody 0.1 ug/mL with against without 10 ug/mL competitor polyclonal AF2244

Substance	quantitative value with the polyclonal antibody added (+) against not added (-) [1] [%]	binding rate by addition of anti-CEACAM1 polyclonal antibody [2] [%]
anti-CEACAM1 antibody 283324 (R&D Systems)	3	41
biotin-labeled anti-CEACAM1 antibody BAF2244 (R&D Systems)		44.8
